Data: patent publication US20100040541A1 (published 2010)
Changes are numbered by the printed parent chain. Names and notes keep the numbering of the source.

How the values were obtained:
[1] = target: T1, CD20 (human B lymphocyte-restricted differentiation antigen, Bp35) on human Burkitt lymphoma cells (Raji, Daudi, Ramos) (human) (UniProt P11836); experiment: cell-based or functional assay
T1 sequence (looked up): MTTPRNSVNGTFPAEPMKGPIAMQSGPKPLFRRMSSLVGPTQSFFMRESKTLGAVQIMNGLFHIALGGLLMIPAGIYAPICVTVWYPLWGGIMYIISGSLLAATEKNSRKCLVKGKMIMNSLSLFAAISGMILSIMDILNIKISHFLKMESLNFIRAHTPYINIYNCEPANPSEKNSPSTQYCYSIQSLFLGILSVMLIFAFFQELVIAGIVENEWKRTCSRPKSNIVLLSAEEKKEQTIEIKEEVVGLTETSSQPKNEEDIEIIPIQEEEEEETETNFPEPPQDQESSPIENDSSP

[2] = target: T1, CD20 (human B lymphocyte-restricted differentiation antigen, Bp35) on human Burkitt lymphoma cells (Raji, Daudi, Ramos) (human); experiment: flow cytometry dissociation of PE-labeled MAb from Raji cells at 37 C without competing veltuzumab-Fab'-NEM
anti-idiotype antibodies = experiment: binding of radioiodinated MAb to anti-idiotype antibodies
[3] = target: T2, CD20 (human B lymphocyte-restricted differentiation antigen, Bp35) on human Burkitt lymphoma cells (Raji, … (human, UniProt P11836 1-297)); experiment: flow cytometry dissociation of PE-labeled MAb from Daudi, Ramos and Raji cells at 37 C with excess veltuzumab-Fab'-NEM
T2 construct: whole, on cells; also called cell-surface CD20
T2 sequence (looked up): T1 sequence (looked up)
Protocol: (§1) Cells (Daudi, Raji, or Ramos) in 0.5 mL of CM (phenol red-free RPMI 1640 media supplemented with 10% FBS) at 1×10⁶ cells/mL were incubated with 5 μg of each PE-labeled MAb at room temperature for 30 min, pelleted at 400×g, washed twice with CM, resuspended in 1.5 mL of CM, and split into two 0.75-mL aliquots. […] Subsequent measurements were taken at 30-min intervals. The percent maximal binding, which is the quotient of the MFI at T=X divided by that at T=0, was plotted against time, and the results analyzed by Prism software (GraphPad Software Inc., San Diego, Calif.) to yield the half-life or off-rates.

[4] = target: T2, CD20 (human B lymphocyte-restricted …); experiment: flow cytometry dissociation from lymphoma cells, with or without a competitive binder
Protocol: as §1

[5] = target: T2, CD20 (human B lymphocyte-restricted …); experiment: flow cytometry dissociation of PE-labeled MAb from Raji cells at 37 C without competing veltuzumab-Fab'-NEM
Protocol: The off-rate was determined by non-linear regression (one phase exponential decay) and P-values were generated by F-test using GraphPad Prism software.
as §1

[6] = target: T2, CD20 (human B lymphocyte-restricted …); experiment: saturation binding of 125I-labeled MAb to Raji cells, nonlinear regression / Scatchard, replicate assays
Protocol: Raji cells (5×10⁵) were incubated with radioiodinated MAbs in an assay volume of 225 μl, using tissue culture media as diluent, for 1 h at 37° C. or room temperature. Cells then were washed twice with PBS containing 1% horse serum, and cell pellets were counted in a gamma counter. The MAbs were titrated at a 2:3 serial dilution starting with approximately 2×10⁶ cpm/2 μg MAb/tube, run in triplicate. Non-specific binding was measured by including replicate unlabeled MAb.

[7] = target: T2, CD20 (human B lymphocyte-restricted …); experiment: flow cytometry dissociation of PE-labeled MAb from Raji cells at 37 C with excess veltuzumab-Fab'-NEM
Protocol: as §1

hMN-14 IgG (labetuzumab), humanized anti-CEACAM5 monoclonal antibody, negative control
ADCC (% lysis) of Daudi cells with PBMCs, negative control MAb [1]: 9.9 % lysis

B1: 1F5, murine anti-CD20 monoclonal antibody (antibody, from another filing, V domains shown)
VH: QVQLRQPGAELVKPGASVKMSCKASGYTFTSYNMHWVKQTPGQGLEWIGAIYPGNGDTSYNQKFKGKATLTADKSSSTAYMQLSSLTSEDSAVYYCARSHYGSNYVDYFDYWGQGTTLTVSS
VL: QIVLSQSPAILSASPGEKVTMTCRASSSLSFMHWYQQKPGSSPKPWIYATSNLASGVPARFSGSGSGTSYSLTISRVEAEDAATYFCHQWSSNPLTFGAGTKLELKR
half-life (dissociation) [2]: 195 min

B2: veltuzumab (hA20), humanized anti-CD20 IgG-kappa monoclonal antibody (antibody, V domains shown)
VH: QVQLQQSGAEVKKPGSSVKVSCKASGYTFTSYNMHWVKQAPGQGLEWIGAIYPGNGDTSYNQKFKGKATLTADESTNTAYMELSSLRSEDTAFYYCARSTYYGGDWYFDVWGQGTTVTVSS
VL: DIQLTQSPSSLSASVGDRVTMTCRASSSVSYIHWFQQKPGKAPKPWIYATSNLASGVPVRFSGSGSGTDYTFTISSLQPEDIATYYCQQWTSNPPTFGGGTKLEIK
notes: also called v-mab; Vmab
immunoreactivity (anti-idiotype antibodies): > 90% | fold longer dissociation half-life than rituximab [3]: 2.7 fold | fold slower off-rate than rituximab or D101N [4]: ~2.5 fold | half-life (dissociation) [5]: 281 min | Kd [6]: 6.23 to 12 nM

B3: D101N, mutant of veltuzumab with aspartic acid changed to asparagine at Kabat position 101 in CDRH3 (antibody, name in Kabat numbering, V domains shown)
VH: B2 VH with D109N
VL: B2 VL
notes: It has the same CDRs as rituximab and FRs identical to veltuzumab, with the same constant regions as veltuzumab (hA20-pdHL2 vector); also called D101N-hA20
half-life (dissociation) [5]: 42 min | fold faster off-rate than rituximab [7]: 2 fold | fold faster off-rate than veltuzumab [7]: 6 fold

B4: rituximab, chimeric anti-CD20 monoclonal antibody (IDEC-c2B8) (antibody, V domains shown)
VH: QVQLQQPGAELVKPGASVKMSCKASGYTFTSYNMHWVKQTPGRGLEWIGAIYPGNGDTSYNQKFKGKATLTADKSSSTAYMQLSSLTSEDSAVYYCARSTYYGGDWYFNVWGQGTTVTVSS
VL: QIVLSQSPAILSASPGEKVTMTCRASSSVSYIHWFQQKPGSSPKPWIYATSNLASGVPVRFSGSGSGTSYSLTISRVEAEDAATYYCQQWTSNPPTFGGGTK
notes: Commercial chimeric antibody with human constant regions; also called Rmab; Rituxan
half-life (dissociation) [5]: 94 min | Kd [6]: 6.7 to 8.63 nM

B5: cA20, chimeric anti-CD20 antibody (antibody, V domains shown)
VH: B4 VH with N109D
VL: DIQLTQSPAILSASPGEKVTMTCRASSSVSYIHWFQQKPGSSPKPWIYATSNLASGVPVRFSGSGSGTSYSLTISRVEAEDAATYYCQQWTSNPPTFGGGTKLEIK
notes: Chimeric antibody: murine variable regions on human constant regions
fold slower off-rate than rituximab or D101N [4]: ~2.5 fold
